Source: patent US20040014132A1 (AstraZeneca / MedImmune, published 2004)

Biological target: Human eotaxin (human, UniProt P51671 24-97)
Experiment: cell-based or functional assay

Human eotaxin, sequence (P51671 24-97 limits assumed): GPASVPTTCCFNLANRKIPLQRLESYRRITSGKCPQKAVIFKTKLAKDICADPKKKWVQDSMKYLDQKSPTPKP

Binder | IC50, inhibition of eotaxin-induced Ca^2+ flux in CCR3 cells (area under the curve, FLIPR) | IC50, inhibition of eotaxin-mediated chemotaxis of CCR3 transfected L1.2 cells | geometric mean IC50, inhibition of eotaxin-evoked shape change of human eosinophils (forward scatter)
CAT-212 (scFv, part only; not given: scFv linker and myc/His tag, V domains shown, not shown: another chain or arm of the molecule; small tags and cut ends) VH: QVQLVQSGGGVVQPGRSLRLSCAASGFTFSSYGMHWVRQAPGKGLEWVAVISYDGSIKHYADSVKGRFTISRDNSKNTLYLQMNSLRTDDTAVYYCAGDTDYGDIDPWGQGTMVTVSS VL: DIQMTQSPSSVSASVGDRVTITCRASQDISSWLAWYQQKPGKAPKLLIYAASSLQSGVPSRFSGSGSGTDFTLTISSLQPEDFATYYCQQASSFPSITFGQGTRLEIK | 5 nM | 0.65 nM | –
CAT-213 (antibody, human IgG4, V domains shown) VH: QVQLVQSGGGVVQPGRSLRLSCAASGFTFSSYGMHWVRQAPGKGLEWVAVISYDGSIKHYADSVKGRFTISRDNSKNTLYLQMNSLRTDDTAVYYCAGDTDYGDIDPWGQGTMVTVSS VL: DIQMTQSPSSVSASVGDRVTITCRASQDISSWLAWYQQKPGKAPKLLIYAASSLQSGVPSRFSGSGSGTDFTLTISSLQPEDFATYYCQQASSFPSITFGQGTRLEIKR | – | 0.7 nM | 0.714 nM
